# Assay results published in PMC6173309.
# B1: modified Widom 601 with SOX11 site, free DNA (dsDNA)
# DNA 1: CTGGAGAATCCCGGTCTGCAGGCCGCTCAATTGGTCGTAGACAGCTCTAGCACCGCTTAAACGCACGTACGGTATTGTTTATTTTGTTCCTCCGCCAAGGGGATTACTCCCTAGTCTCCAGGCACGTGTCAGATATATACATCCTGT
# DNA 2: ACAGGATGTATATATCTGACACGTGCCTGGAGACTAGGGAGTAATCCCCTTGGCGGAGGAACAAAATAAACAATACCGTACGTGCGTTTAAGCGGTGCTAGAGCTGTCTACGACCAATTGAGCGGCCTGCAGACCGGGATTCTCCAG
# Target: SOX11 (UniProt P35716 34-132)
# Experiment: EMSA
# Chain of SOX11 (P35716 34-132): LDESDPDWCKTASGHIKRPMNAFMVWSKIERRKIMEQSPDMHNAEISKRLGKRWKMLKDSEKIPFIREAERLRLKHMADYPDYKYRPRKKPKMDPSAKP
binder,measurement,value
B1,binding result,binds
